Here are results for 3 substances from PMC4047056.

The target in assay [1] is CFP-tagged C-terminal segment of Kv2.1 (human). Briefly: FRET or BRET; acceptor (YFP) photobleaching FRET in HEK293 cells co-transfected with CFP- and YFP-tagged fragments in a 1:2 cDNA ratio, 48 h after transfection; only cells with YFP/CFP intensity ratio >1.
Assay [2] has as its target CFP-tagged Kv6.4 C-terminus (human). The description is as above.
Assay [3] has as its target CFP-tagged N-terminal Kv2.1 fragment (human). The description is as above.
In assay [4] the target is CFP-tagged N-terminal Kv6.4 fragment (human). The description is as above.
Assay [5] addresses CFP-tagged N-terminal Kv3.1 fragment (human). Described as above.
In assay [6] the target is Kv2.1 subunit (unlabeled) (human) (UniProt Q14721).

Sequence of YFP-tagged N-terminal Kv3.1 fragment (domain or fragment) (P48547 whole entry, the tested form may be a part): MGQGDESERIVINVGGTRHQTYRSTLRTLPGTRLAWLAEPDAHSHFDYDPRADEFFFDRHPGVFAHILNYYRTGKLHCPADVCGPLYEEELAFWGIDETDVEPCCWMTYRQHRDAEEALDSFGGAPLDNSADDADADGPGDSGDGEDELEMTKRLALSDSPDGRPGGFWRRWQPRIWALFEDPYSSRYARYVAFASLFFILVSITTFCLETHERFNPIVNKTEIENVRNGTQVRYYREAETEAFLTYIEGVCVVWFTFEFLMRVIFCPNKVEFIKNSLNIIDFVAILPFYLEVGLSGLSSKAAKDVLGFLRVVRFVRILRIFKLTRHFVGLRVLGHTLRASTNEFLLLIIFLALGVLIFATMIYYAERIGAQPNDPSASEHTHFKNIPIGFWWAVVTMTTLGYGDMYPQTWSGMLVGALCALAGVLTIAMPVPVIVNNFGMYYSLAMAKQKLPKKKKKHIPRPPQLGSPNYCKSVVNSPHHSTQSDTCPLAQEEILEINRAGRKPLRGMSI
Sequence of CFP-tagged N-terminal Kv6.4 fragment (human) (Q8TDN1 whole entry, the tested form may be a part): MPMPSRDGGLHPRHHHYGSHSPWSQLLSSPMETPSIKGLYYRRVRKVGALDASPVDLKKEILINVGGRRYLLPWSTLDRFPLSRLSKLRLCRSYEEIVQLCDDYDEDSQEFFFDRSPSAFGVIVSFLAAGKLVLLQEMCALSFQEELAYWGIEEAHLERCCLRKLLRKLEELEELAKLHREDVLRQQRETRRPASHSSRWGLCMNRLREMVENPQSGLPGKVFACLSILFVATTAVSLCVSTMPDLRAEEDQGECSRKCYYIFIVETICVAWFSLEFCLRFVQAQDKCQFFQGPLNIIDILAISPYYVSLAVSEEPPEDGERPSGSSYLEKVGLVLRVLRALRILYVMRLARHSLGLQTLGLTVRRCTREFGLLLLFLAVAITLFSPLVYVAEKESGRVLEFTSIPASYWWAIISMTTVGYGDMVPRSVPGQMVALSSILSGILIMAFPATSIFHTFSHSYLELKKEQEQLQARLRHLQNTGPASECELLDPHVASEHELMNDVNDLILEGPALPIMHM
Sequence of CFP-tagged N-terminal Kv3.1 fragment (human) (P48547 whole entry, the tested form may be a part): as the sequence (P48547 whole entry, the tested form may be a part) above
Sequence of CFP-tagged Kv6.4 C-terminus (human) (Q8TDN1 whole entry, the tested form may be a part): as the sequence (Q8TDN1 whole entry, the tested form may be a part) above

Turning to “YFP-tagged N-terminal Kv2.1 fragment (domain or fragment)”, the FRET efficiency in assay [1] is 8.3%; in assay [2], 8.7%; in assay [3] it was 21.7%; in assay [4], 21.3%.

On to “YFP-tagged N-terminal Kv3.1 fragment (domain or fragment)”, for which the results for the FRET efficiency in assay [5] and in assay [4] were 28.8% and 9.6%, respectively.

Turning to “Kv6.4(CKv3.1) chimera in which the C-terminus of Kv6.4 was replaced by the corresponding domain of Kv3.1”, in assay [6], the midpoint of inactivation, V1/2, 1st component of the double Boltzmann fit (as of Kv2.1 homotetramers), whole-cell currents in HEK293 cells co-expressing Kv2.1 and Kv6.4(CKv3.1) is -24.3 mV; the midpoint of inactivation, V1/2, 2nd component of the double Boltzmann fit, whole-cell currents in HEK293 cells co-expressing Kv2.1 and Kv6.4(CKv3.1) is -71.1 mV.
